Assay results: publication PMC2788870

Molecular target: His6-HPr (B. subtilis) (UniProt P08877)
Experiment: pull-down

UniProt P08877, sequence (P08877 whole entry): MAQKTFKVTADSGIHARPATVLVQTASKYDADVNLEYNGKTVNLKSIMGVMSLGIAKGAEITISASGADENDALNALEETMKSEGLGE

A stoichiometry N of 1 was found for “GST-HBD (from UniProt O31522 403-515) (domain or fragment)” in this work.
